The chains are these.
B1: Twister Ribozyme (parent)
chain: AACACUGCCAAUGCCGGUCCCAAGCCCGGAUAAAAGUGGAGGGGGCGG

The variants in this data set derive from B1. Put plainly: self-cleavage, relative activity (ratio to wild type); higher = more cleavage; co-transcriptional.
On to C21U G45A, for which the self-cleavage came to 0.123.

With A4G G45A, the self-cleavage was determined as 0.955.

A10U C19A: the self-cleavage was determined as 0.331.

For A40G G47U, the self-cleavage came out at 0.143.

As for G13A G29A, the self-cleavage is 0.653.

For the variant G28C U31C, the self-cleavage was 0.938.

Regarding U37G G41A, the self-cleavage is 0.209.

As for C27A U31C, the self-cleavage was 0.495.

U31G U37A: the self-cleavage was found to be 0.818.

On to U6A A33C, for which the self-cleavage was 0.949.

As for C3A G39U, the self-cleavage was 0.0737.

Take C3A G39A: the self-cleavage turned out to be 0.0266.

Turning to U12C C20U, the self-cleavage turned out to be 0.695.

Turning to C21A A32G, the self-cleavage is 0.0702.

Take A33G A40G: the self-cleavage is 0.195.

Turning to C15G A32C, the self-cleavage worked out at 0.112.

As to G13U G16U, the self-cleavage worked out at 0.253.

On to C9G C20G, for which the self-cleavage is 0.0438.

Turning to A32C G47A, the self-cleavage was determined as 0.764.

In the case of C8U A34C, the self-cleavage stood at 0.134.

On to C26G G48A, for which the self-cleavage turned out to be 0.107.

Take C14G A23G: the self-cleavage amounted to 0.103.

With U6A C9U, the self-cleavage was determined as 0.223.

In the case of U6A C9A, the self-cleavage was 0.153.

On to U6G C19G, for which the self-cleavage is 0.

Consider A30U G48A, for which the self-cleavage was found to be 1.

Regarding G7A C15A, the self-cleavage amounted to 0.111.

G24A A35U: the self-cleavage worked out at 0.113.

In the case of C5A A32U, the self-cleavage was 0.454.

Regarding C25G U31C, the self-cleavage was 0.404.

Turning to G39C A40C, the self-cleavage came to 0.114.

Consider A23U C27U, for which the self-cleavage was determined as 0.305.

For the variant C8A G41U, the self-cleavage is 0.146.

As for U31A U37C, the self-cleavage amounted to 0.591.

In the case of C3A G38C, the self-cleavage was determined as 0.297.

A2U U12A: the self-cleavage came out at 0.667.

U12G G42A: the self-cleavage was 0.494.

C20U G41A: the self-cleavage is 0.124.

C14G: the self-cleavage was 0.171.

Regarding G36C C46G, the self-cleavage is 0.45.

As for A35U G41U, the self-cleavage turned out to be 0.693.

For A11C U18A, the self-cleavage was found to be 0.159.

Take C3A G24C: the self-cleavage is 0.0654.

In the case of G7U A40C, the self-cleavage is 0.0967.

As for C8U A11C, the self-cleavage came to 0.89.

Regarding C27A A34C, the self-cleavage was determined as 0.0922.

On to C14G C15G, for which the self-cleavage was 0.243.

A11G A40G: the self-cleavage was 0.11.

With U37A C46U, the self-cleavage turned out to be 0.886.

With G13A A34U, the self-cleavage came to 0.64.

Consider G39C G45U, for which the self-cleavage amounted to 0.158.

Turning to A1G C3A, the self-cleavage came to 0.349.

G44A C46U: the self-cleavage came out at 0.988.

For the variant A33G G38U, the self-cleavage came out at 0.861.

As for A22G G28A, the self-cleavage was 0.128.

On to A22G G28U, for which the self-cleavage amounted to 0.197.

Take C5A G39C: the self-cleavage worked out at 0.149.

As for U12A C27A, the self-cleavage is 0.744.

For the variant G16C G17A, the self-cleavage came to 0.124.

Consider C9G C46U, for which the self-cleavage stood at 0.609.

For the variant G29U C46G, the self-cleavage turned out to be 0.88.

With A2C A4G, the self-cleavage was 0.0453.

On to A4C A30G, for which the self-cleavage was 0.163.

In the case of A11C G28U, the self-cleavage amounted to 0.563.

As to C3A A11U, the self-cleavage is 0.212.

With C27G G43C, the self-cleavage came out at 0.0881.

Regarding G17U G44U, the self-cleavage was 0.374.

With G13U, the self-cleavage turned out to be 0.801.

Regarding U31C A40C, the self-cleavage worked out at 0.249.

With G28U C46G, the self-cleavage was determined as 0.765.

For A11G G28U, the self-cleavage was 0.725.

Consider C20U C25G, for which the self-cleavage came out at 0.088.

With A4U C14U, the self-cleavage stood at 0.13.

C14G A35G: the self-cleavage was determined as 0.138.

On to U12C G41A, for which the self-cleavage was 0.577.

Consider U18A C19A, for which the self-cleavage worked out at 0.0671.

As for G17U A32U, the self-cleavage is 0.294.

Take U6C G41U: the self-cleavage came to 0.113.

For the variant C14U G29C, the self-cleavage was found to be 1.09.

As for A35U G39C, the self-cleavage is 0.104.

For C8G G44U, the self-cleavage was found to be 0.275.

For the variant U37C G44A, the self-cleavage stood at 0.69.

As to A4G C5A, the self-cleavage is 0.892.

In the case of C20A G45U, the self-cleavage is 0.17.

On to A32C G43A, for which the self-cleavage amounted to 0.242.

As for C14A U31A, the self-cleavage was 0.796.

C5G A35C: the self-cleavage was 0.742.

For the variant C25A U37C, the self-cleavage was 0.0999.

Turning to A1G G24C, the self-cleavage worked out at 0.18.

Consider U6A A32C, for which the self-cleavage worked out at 0.753.

Take A4U C15U: the self-cleavage was found to be 0.124.

Consider C21U A30C, for which the self-cleavage came out at 0.0806.

Regarding G28U A34U, the self-cleavage was found to be 0.585.

In the case of C8A U18G, the self-cleavage was 0.0805.

As for C8A U18A, the self-cleavage was 0.111.

For A22C U31C, the self-cleavage was determined as 1.12.

Consider A22C U31A, for which the self-cleavage was determined as 0.54.

As for C14G C21G, the self-cleavage came out at 0.0402.

With G7C C15U, the self-cleavage is 0.0844.

Turning to A35G G47A, the self-cleavage is 0.706.

U18G G38C: the self-cleavage was found to be 0.102.

On to G17C A23C, for which the self-cleavage is 0.092.

As for G36A U37C, the self-cleavage is 0.156.

With G38U G43C, the self-cleavage stood at 0.126.

In the case of A4U A34C, the self-cleavage was 0.057.

U12C A34C: the self-cleavage was 0.382.

In the case of G28U G41A, the self-cleavage is 0.459.

Regarding A4C C27G, the self-cleavage turned out to be 0.0637.

As for C8G C21U, the self-cleavage is 0.0624.

For C9G G29A, the self-cleavage was 0.596.

In the case of G17A G45U, the self-cleavage turned out to be 0.147.

With G29A, the self-cleavage came out at 0.915.

On to A4C C19A, for which the self-cleavage is 0.0783.

With C19U G39A, the self-cleavage was 0.28.

For the variant A35C A40U, the self-cleavage is 0.142.

C19A A33U: the self-cleavage worked out at 0.148.

Consider A40C G47A, for which the self-cleavage was determined as 0.19.

Take C19U A40G: the self-cleavage was 0.108.

In the case of A1C G39C, the self-cleavage amounted to 0.145.

As to G7U G48U, the self-cleavage came to 0.0928.

For A33C G36U, the self-cleavage worked out at 0.122.

A2G A10U: the self-cleavage was found to be 0.346.

For G16A A22C, the self-cleavage stood at 0.941.

With A1C A10U, the self-cleavage amounted to 0.153.

Take G7U C26U: the self-cleavage stood at 0.0446.

C14G A33G: the self-cleavage stood at 0.0896.

In the case of A22U G36C, the self-cleavage is 0.19.

As to A33U G41U, the self-cleavage was determined as 0.489.

Consider C26U U31A, for which the self-cleavage worked out at 0.432.

G16A A33G: the self-cleavage was 0.892.

Consider C21A G39A, for which the self-cleavage stood at 0.0763.

As to G7C C46U, the self-cleavage was 0.0589.

Consider A30G G42U, for which the self-cleavage stood at 0.377.

On to U18C G43C, for which the self-cleavage is 0.121.

Take C14U C15A: the self-cleavage worked out at 0.636.

Take G17C G43A: the self-cleavage came to 0.0872.

Regarding A23U G39C, the self-cleavage amounted to 0.0667.

As for C8G A22C, the self-cleavage stood at 0.437.

For C27A U37G, the self-cleavage turned out to be 0.0964.

As for C3A G29C, the self-cleavage is 0.184.

A11U G16A: the self-cleavage is 0.804.

In the case of C14G C27A, the self-cleavage amounted to 0.0743.

C5U C21G: the self-cleavage was 0.0614.

As for A1G U31G, the self-cleavage turned out to be 0.533.

Turning to G29C G39U, the self-cleavage was 0.12.

For G28A C46G, the self-cleavage was determined as 0.864.

As for G24A G43U, the self-cleavage was 0.0769.

Take C15G G17A: the self-cleavage came to 0.326.

As to U6C A40U, the self-cleavage came out at 0.119.

A30U U31G: the self-cleavage came out at 0.993.

For the variant C26G G39C, the self-cleavage was found to be 0.119.

Turning to C26A A40G, the self-cleavage came to 0.182.

For C21G A32G, the self-cleavage is 0.0254.

For the variant C25U G38U, the self-cleavage amounted to 0.614.

For G17A G42C, the self-cleavage came out at 0.192.

C21U C25U: the self-cleavage came out at 0.0856.

Regarding A10U A30U, the self-cleavage is 0.922.

Regarding C8A A32U, the self-cleavage came to 0.275.

With G17A C20G, the self-cleavage came out at 0.0402.

Take A32U A33C: the self-cleavage was determined as 0.895.

Regarding C20U A30U, the self-cleavage was 1.05.

With A33U G44U, the self-cleavage was determined as 0.897.

On to G7C C19U, for which the self-cleavage is 0.0513.

On to U6G A34U, for which the self-cleavage turned out to be 0.493.

For the variant C3U G36C, the self-cleavage stood at 0.0744.

In the case of C19A A32C, the self-cleavage came to 0.201.

As to G13A G16U, the self-cleavage amounted to 0.168.
